Source: patent EP1486509A2, “Radiolabeled annexin-galactose cluster conjugates” (NEORX CORPORATION, priority 1994, dated 1996)

How the values were obtained:
[1] = tested on: atrial thrombi and injured left atrium; design: species or system Yorkshire swine; settings: in vivo
Method: Image acquisition was performed as described below. […] A final blood sample was taken for well counting.
D. Sample Collection. […] Each vial was counted for 1 minute.
Well counting ratios were obtained for a variety of tissue samples. For the injured tissues and thrombi, multiple specimens were usually taken from the same animal. In those cases, the maximum ratio for any one specimen is reported, as well as the average of all specimens taken. The maximum for each animal was averaged across all animals and is reported as the Maximum Anx-V Ratio.

[2] = Blood clearance in the swine model; settings: in vivo
Excerpt: An animal model, as previously described in Example III, was employed to evaluate blood clearance of the molecules.

In the case of “Tc-99m-annexin V: Annexin V radiolabeled with Tc-99m by a diamide dimercaptide N2S2 chelate (Example I)”, the highest non-target localization [1] is reported as “kidney”, the “%ID/g a” value [2] is reported as “%ID/g a = 0.0389” and the “%ID/g b” value [2] is reported as “%ID/g b = 0.0300”.
